According to the supplement of paper PMC9732359:
± gives the uncertainty stated by the source.

Test: protein stability index of a GFP-peptide fusion (yeast GPS) (PSI 1-4); higher = more stable; sorted into four equal gates, so the index is relative within each strain
Summary of the method: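 Plasmids isolated from each sorting gate were PCR-amplified and Illumina-sequenced, and barcodes assigned the reads to strains. The gates, four of equal size, were set by GFP/Cherry fluorescence ratio on mid-log cultures in leucine-free medium. These cultures were yeast carrying a pooled library of tiled 17-residue yeast protein peptides fused downstream of GFP on a plasmid that also expresses Cherry. The protein stability index is the sum of every gate's read frequency times its gate number.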

Question: What does the source list for KYSAITSSIFQESFNSV [NUT1]?
Answer: protein stability index (doa10∆): 2.22 ± 0.053; protein stability index (pdr5∆): 2.37 ± 0.046; protein stability index (san1∆): 2.7 ± 0.047; protein stability index (ubr1∆): 2.48 ± 0.037

Question: For KYYIVSSSKSMINDENY [SRB8], which protein stability index (doa10∆) is on record?
Answer: 2.91 ± 0.073

Question: And the protein stability index (pdr5∆)?
Answer: 2.76 ± 0.056

Question: What about the protein stability index (san1∆) of the same sequence?
Answer: 2.43 ± 0.083

Question: What about the protein stability index (ubr1∆) of the same sequence?
Answer: 2.81 ± 0.04

Question: Which results are given for LAAMAVLESHWKQDLTK [PUP1]?
Answer: protein stability index (doa10∆): 3.24 ± 0.16; protein stability index (pdr5∆): 3.24 ± 0.14; protein stability index (san1∆): 2.48 ± 0.21; protein stability index (ubr1∆): 3.71 ± 0.18

Question: With LAASEIGISIVGRFSTI [ECM29] as the sequence, how does the protein stability index (doa10∆) read?
Answer: 2.51 ± 0.091

Question: And the protein stability index (pdr5∆)?
Answer: 2.95 ± 0.078

Question: And the protein stability index (san1∆)?
Answer: 2.88 ± 0.073

Question: And the protein stability index (ubr1∆)?
Answer: 2.3 ± 0.064

Question: Which results are given for LADSLDRCVDPEDPYFN [DIS3]?
Answer: protein stability index (doa10∆): 3.05 ± 0.095; protein stability index (pdr5∆): 2.64 ± 0.079; protein stability index (san1∆): 3.35 ± 0.076; protein stability index (ubr1∆): 3.4 ± 0.059

Question: For LADWRIRPLSKPMTAYA [RRP6], which protein stability index (doa10∆) is on record?
Answer: 2.82 ± 0.13

Question: And the protein stability index (pdr5∆)?
Answer: 3.15 ± 0.13

Question: And the protein stability index (san1∆)?
Answer: 2.7 ± 0.19

Question: What about the protein stability index (ubr1∆) of the same sequence?
Answer: 2.98 ± 0.088

Question: For LAEKVEKASRQQRKQKK [RPS24A], which protein stability index (doa10∆) is on record?
Answer: 3.65 ± 0.27

Question: And the protein stability index (pdr5∆)?
Answer: 3.33 ± 0.11

Question: And the protein stability index (san1∆)?
Answer: 3.35 ± 0.1

Question: What about the protein stability index (ubr1∆) of the same sequence?
Answer: 3.15 ± 0.2

Question: Which protein stability index (doa10∆) does the source give for LAGKYIPNLTAKPFQVT [FAS1] here?
Answer: 2.37 ± 0.06

Question: And the protein stability index (pdr5∆)?
Answer: 2.76 ± 0.053

Question: And the protein stability index (san1∆)?
Answer: 2.29 ± 0.1

Question: And the protein stability index (ubr1∆)?
Answer: 2.63 ± 0.048

Question: For LAINAKTITSGLKYALA [RPB2], which protein stability index (doa10∆) is on record?
Answer: 2.65 ± 0.057

Question: And the protein stability index (pdr5∆)?
Answer: 2.83 ± 0.073

Question: And the protein stability index (san1∆)?
Answer: 2.4 ± 0.061

Question: What about the protein stability index (ubr1∆) of the same sequence?
Answer: 2.79 ± 0.044

Question: Which protein stability index (doa10∆) does the source give for LAKAVAATIGANFIFSP [RPT4] here?
Answer: 2.09 ± 0.048

Question: What about the protein stability index (pdr5∆) of the same sequence?
Answer: 1.99 ± 0.042

Question: What about the protein stability index (san1∆) of the same sequence?
Answer: 1.72 ± 0.088

Question: What about the protein stability index (ubr1∆) of the same sequence?
Answer: 2.18 ± 0.069

Question: Which results are given for LALEIIVRPAKGVATTR [RRP46]?
Answer: protein stability index (doa10∆): 2.09 ± 0.058; protein stability index (pdr5∆): 2.18 ± 0.065; protein stability index (san1∆): 1.86 ± 0.078; protein stability index (ubr1∆): 2.25 ± 0.051

Question: With LALPVFHIGYFKATIQI [RPO31] as the sequence, how does the protein stability index (doa10∆) read?
Answer: 1.51 ± 0.059

Question: And the protein stability index (pdr5∆)?
Answer: 1.49 ± 0.043

Question: And the protein stability index (san1∆)?
Answer: 1.87 ± 0.098

Question: And the protein stability index (ubr1∆)?
Answer: 1.58 ± 0.044

Question: Which results are given for LALSSNISRDFQSYIVS [COR1]?
Answer: protein stability index (doa10∆): 2.03 ± 0.073; protein stability index (pdr5∆): 2.71 ± 0.084; protein stability index (san1∆): 2.09 ± 0.1; protein stability index (ubr1∆): 1.88 ± 0.047

Question: For LAMVIIKEFVDDLKKDH [DSN1], which protein stability index (doa10∆) is on record?
Answer: 2.74 ± 0.2

Question: And the protein stability index (pdr5∆)?
Answer: 2.92 ± 0.16

Question: What about the protein stability index (san1∆) of the same sequence?
Answer: 2.88 ± 0.12

Question: And the protein stability index (ubr1∆)?
Answer: 2.85 ± 0.085

Question: Which protein stability index (doa10∆) does the source give for LARASGNYVIIIGHNPD [RPL2A] here?
Answer: 2.8 ± 0.087

Question: What about the protein stability index (pdr5∆) of the same sequence?
Answer: 2.89 ± 0.089

Question: What about the protein stability index (san1∆) of the same sequence?
Answer: 2.85 ± 0.096

Question: And the protein stability index (ubr1∆)?
Answer: 2.68 ± 0.097

Question: Which protein stability index (doa10∆) does the source give for LAVIMDNIGEIDESLFN [YCG1] here?
Answer: 3.08 ± 0.12

Question: And the protein stability index (pdr5∆)?
Answer: 3.1 ± 0.064

Question: What about the protein stability index (san1∆) of the same sequence?
Answer: 3.13 ± 0.059

Question: What about the protein stability index (ubr1∆) of the same sequence?
Answer: 3 ± 0.12

Question: For LAYAVLGIALIALGEDI [RPN1], which protein stability index (doa10∆) is on record?
Answer: 1.73 ± 0.094

Question: And the protein stability index (pdr5∆)?
Answer: 1.72 ± 0.094

Question: And the protein stability index (san1∆)?
Answer: 1.98 ± 0.11

Question: And the protein stability index (ubr1∆)?
Answer: 2.33 ± 0.06

Question: For LCDNFNHFSLSYKDSGL [COR1], which protein stability index (doa10∆) is on record?
Answer: 2.27 ± 0.066

Question: And the protein stability index (pdr5∆)?
Answer: 2.7 ± 0.069

Question: What about the protein stability index (san1∆) of the same sequence?
Answer: 2.73 ± 0.067

Question: And the protein stability index (ubr1∆)?
Answer: 2.5 ± 0.066

Question: For LCYMAPMTVKLVQLPKS [POP3], which protein stability index (doa10∆) is on record?
Answer: 2.37 ± 0.065

Question: And the protein stability index (pdr5∆)?
Answer: 2.23 ± 0.063

Question: And the protein stability index (san1∆)?
Answer: 2.39 ± 0.06

Question: And the protein stability index (ubr1∆)?
Answer: 2.76 ± 0.065

Question: For LDDFGEEELFEVTKEED [RRP43], which protein stability index (doa10∆) is on record?
Answer: 2.92 ± 0.11

Question: And the protein stability index (pdr5∆)?
Answer: 2.54 ± 0.15

Question: And the protein stability index (san1∆)?
Answer: 2.36 ± 0.12

Question: Which protein stability index (doa10∆) does the source give for LDDWISIGYETELKKIT [IRR1] here?
Answer: 2.09 ± 0.07

Question: And the protein stability index (pdr5∆)?
Answer: 2.75 ± 0.078

Question: And the protein stability index (san1∆)?
Answer: 2.33 ± 0.14

Question: And the protein stability index (ubr1∆)?
Answer: 2.58 ± 0.053

Question: What does the source list for LDKNLIKLVKQNDELKF [RPC34]?
Answer: protein stability index (doa10∆): 1.16 ± 0.077; protein stability index (pdr5∆): 1.21 ± 0.073; protein stability index (san1∆): 1.43 ± 0.18; protein stability index (ubr1∆): 2.18 ± 0.1

Question: Which protein stability index (doa10∆) does the source give for LDLMFDEVYVQNSKFLK [YJL039C/NUP192] here?
Answer: 2.94 ± 0.066

Question: What about the protein stability index (pdr5∆) of the same sequence?
Answer: 2.94 ± 0.055

Question: What about the protein stability index (san1∆) of the same sequence?
Answer: 2.87 ± 0.071

Question: What about the protein stability index (ubr1∆) of the same sequence?
Answer: 2.87 ± 0.034

Question: What does the source list for LDNLKLKELRIDNSPQA [GRR1]?
Answer: protein stability index (doa10∆): 2.65 ± 0.054; protein stability index (pdr5∆): 2.72 ± 0.07; protein stability index (san1∆): 2.69 ± 0.07; protein stability index (ubr1∆): 2.94 ± 0.042

Question: For LDPLEVHMLDFPNIAIR [PRP8], which protein stability index (doa10∆) is on record?
Answer: 2.74 ± 0.059

Question: What about the protein stability index (pdr5∆) of the same sequence?
Answer: 2.79 ± 0.056

Question: And the protein stability index (san1∆)?
Answer: 2.84 ± 0.051

Question: And the protein stability index (ubr1∆)?
Answer: 2.88 ± 0.043

Question: Which protein stability index (doa10∆) does the source give for LDPSLRAPIYHSKFRSS [YML031W/NDC1] here?
Answer: 2.02 ± 0.093

Question: And the protein stability index (pdr5∆)?
Answer: 2.34 ± 0.064

Question: And the protein stability index (san1∆)?
Answer: 1.71 ± 0.25

Question: And the protein stability index (ubr1∆)?
Answer: 2.35 ± 0.072

Question: For LDQLLVLEKKTRQASDL [RPN5], which protein stability index (doa10∆) is on record?
Answer: 3.19 ± 0.12

Question: What about the protein stability index (pdr5∆) of the same sequence?
Answer: 2.95 ± 0.1

Question: What about the protein stability index (san1∆) of the same sequence?
Answer: 3.1 ± 0.07

Question: What about the protein stability index (ubr1∆) of the same sequence?
Answer: 2.71 ± 0.097

Question: With LDQVGVPKSIAKTLTYP [RPO21] as the sequence, how does the protein stability index (doa10∆) read?
Answer: 2.74 ± 0.064

Question: What about the protein stability index (pdr5∆) of the same sequence?
Answer: 2.83 ± 0.051

Question: And the protein stability index (san1∆)?
Answer: 2.65 ± 0.043

Question: And the protein stability index (ubr1∆)?
Answer: 2.99 ± 0.06

Question: What does the source list for LDRELLKPSMSVALHRH [RPT3]?
Answer: protein stability index (doa10∆): 2.98 ± 0.082; protein stability index (pdr5∆): 2.71 ± 0.1; protein stability index (san1∆): 3.07 ± 0.071; protein stability index (ubr1∆): 2.7 ± 0.16

Question: Which protein stability index (doa10∆) does the source give for LDRIPMHSYFIFKDLVT [COB] here?
Answer: 1.92 ± 0.11

Question: And the protein stability index (pdr5∆)?
Answer: 1.91 ± 0.12

Question: And the protein stability index (san1∆)?
Answer: 1.88 ± 0.12

Question: And the protein stability index (ubr1∆)?
Answer: 1.67 ± 0.069

Question: Which results are given for LDTRKELWRKEQKLQTV [SMC3]?
Answer: protein stability index (doa10∆): 1.79 ± 0.069; protein stability index (pdr5∆): 2.58 ± 0.081; protein stability index (san1∆): 2.83 ± 0.16; protein stability index (ubr1∆): 2.99 ± 0.058

Question: With LEEDSKKVNGTSYKKWS [PRP8] as the sequence, how does the protein stability index (doa10∆) read?
Answer: 3.3 ± 0.14

Question: And the protein stability index (pdr5∆)?
Answer: 3.41 ± 0.15

Question: And the protein stability index (san1∆)?
Answer: 3.24 ± 0.075

Question: And the protein stability index (ubr1∆)?
Answer: 3.03 ± 0.092

Question: For LEFSALSAADIVAQSEV [RPO31], which protein stability index (doa10∆) is on record?
Answer: 3.01 ± 0.093

Question: What about the protein stability index (pdr5∆) of the same sequence?
Answer: 3.13 ± 0.075

Question: What about the protein stability index (san1∆) of the same sequence?
Answer: 3.1 ± 0.071

Question: And the protein stability index (ubr1∆)?
Answer: 3.17 ± 0.059

Question: Which results are given for LEGEELAFYLRRLTAKK [RPS8A]?
Answer: protein stability index (doa10∆): 1.9 ± 0.068; protein stability index (pdr5∆): 1.75 ± 0.068; protein stability index (san1∆): 1.93 ± 0.1; protein stability index (ubr1∆): 3.05 ± 0.099

Question: Which results are given for LEGNDIHALAAKLLQEN [FAS1]?
Answer: protein stability index (doa10∆): 2.76 ± 0.063; protein stability index (pdr5∆): 2.95 ± 0.065; protein stability index (san1∆): 2.77 ± 0.051; protein stability index (ubr1∆): 2.7 ± 0.059

Question: Which protein stability index (doa10∆) does the source give for LEGSVSLPRFSKPVLIV [DIS3] here?
Answer: 2.67 ± 0.072

Question: What about the protein stability index (pdr5∆) of the same sequence?
Answer: 2.57 ± 0.063

Question: And the protein stability index (san1∆)?
Answer: 2.19 ± 0.06

Question: And the protein stability index (ubr1∆)?
Answer: 3.02 ± 0.062

Question: With LEHLHSTAFQNTPLSLP [COR1] as the sequence, how does the protein stability index (doa10∆) read?
Answer: 2.52 ± 0.039

Question: And the protein stability index (pdr5∆)?
Answer: 2.66 ± 0.033

Question: And the protein stability index (san1∆)?
Answer: 2.35 ± 0.035

Question: What about the protein stability index (ubr1∆) of the same sequence?
Answer: 2.65 ± 0.039

Question: For LEIDNKDSVTECSKDMK [SIR4], which protein stability index (doa10∆) is on record?
Answer: 3.46 ± 0.14

Question: What about the protein stability index (pdr5∆) of the same sequence?
Answer: 3.53 ± 0.083

Question: What about the protein stability index (san1∆) of the same sequence?
Answer: 3.4 ± 0.12

Question: What about the protein stability index (ubr1∆) of the same sequence?
Answer: 3.63 ± 0.066
